Test results: patent US20240254222A1 (Bayer, published 2024)
Numbering of substitutions follows the chain as printed.

T1: Pig Semaphorin3A-Sema Domain, TPP-20176 (pig, UniProt Q63548 21-569 (rat entry))
T1 construct: produced inhouse
T1 chain: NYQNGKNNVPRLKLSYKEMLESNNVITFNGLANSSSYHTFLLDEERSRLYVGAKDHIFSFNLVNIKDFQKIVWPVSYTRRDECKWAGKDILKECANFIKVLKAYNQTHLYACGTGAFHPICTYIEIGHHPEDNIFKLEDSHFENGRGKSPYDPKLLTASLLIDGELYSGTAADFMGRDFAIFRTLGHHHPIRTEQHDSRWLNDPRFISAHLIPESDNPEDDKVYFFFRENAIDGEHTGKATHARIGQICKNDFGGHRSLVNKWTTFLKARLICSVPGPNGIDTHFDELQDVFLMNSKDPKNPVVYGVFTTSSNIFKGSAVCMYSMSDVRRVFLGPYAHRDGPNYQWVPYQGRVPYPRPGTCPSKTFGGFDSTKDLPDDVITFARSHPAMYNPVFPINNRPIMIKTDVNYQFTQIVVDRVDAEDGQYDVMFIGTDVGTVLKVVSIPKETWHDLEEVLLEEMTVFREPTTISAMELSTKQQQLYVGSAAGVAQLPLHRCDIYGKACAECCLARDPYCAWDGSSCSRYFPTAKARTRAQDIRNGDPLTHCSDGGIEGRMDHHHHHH

T2: Mouse Semaphorin3A-Sema Domain, TPP-19069 (mouse, UniProt O08665 21-569)
T2 construct: produced inhouse
T2 sequence: T1 chain with Q3A, K102E, I126V, E138Q, T237S, V303I, I444V, V455I, V483I, A486T

B1: TPP-30788 (antibody, human IgG1, kappa, V domains shown)
VH: EVQLVESGGGLVQPGGSLRLSCAASGFTFSSYYMSWVRQAPGKGLEWVSTIIKSGGYAYYPDSVKDRFTISRDNSKNTLYLQMSSLRAEDTAVYYCVRGGQGAMDYWGQGTTVTVSS
VL: EIVLTQSPATLSLSPGERATLSCRASQSIGDYLHWYQQKPGQAPRLLIKYASQSISGIPARFSGSGSGTDFTLTITSLEPEDFAVYYCQQGYSFPYTFGGGTKLEIKR
notes: prior art, WO 2020/225400; also called BI clone I; Böhringer (BI) Clone I
B2: TPP-30789 (antibody, human IgG1, kappa, V domains shown)
VH: B1 VH with T28P
VL: B1 VL
notes: prior art, WO 2020/225400; also called BI clone II; Böhringer (BI) Clone II
B3: TPP-30791 (antibody, human IgG1, kappa, V domains shown)
VH: B1 VH with V12L, P14L, Y80N, S84N, R98K
VL: B1 VL with T76S
notes: prior art, WO 2020/225400; also called BI clone IV; Böhringer (BI) Clone IV
B4: TPP-30790 (antibody, human IgG1, kappa, V domains shown)
VH: B1 VH with P14L, S84N, R98K
VL: B1 VL with K49Y, T76S
notes: prior art, WO 2020/225400; also called BI clone III; Böhringer (BI) Clone III
B5: TPP-23298 (antibody, human IgG4 S228P, lambda, V domains shown)
VH: EVQLLESGGGLVQPGGSLRLSCAASGFTFYSYAMSWVRQAPGKGLEWVSAIGTGGDTYYADSVKGRFTISRDNSKNTLYLQMNSLRAEDTAVYYCARRDDYTSRDAFDYWGQGTLVTVSS
VL: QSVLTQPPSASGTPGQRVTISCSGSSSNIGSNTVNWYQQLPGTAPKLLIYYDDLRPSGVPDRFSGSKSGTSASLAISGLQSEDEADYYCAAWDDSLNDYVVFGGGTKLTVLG
B6: TPP-15370 (antibody, human IgG1, lambda, V domains shown)
VH: B5 VH with Y30S, A33G, S35H, K64M, Y109V
VL: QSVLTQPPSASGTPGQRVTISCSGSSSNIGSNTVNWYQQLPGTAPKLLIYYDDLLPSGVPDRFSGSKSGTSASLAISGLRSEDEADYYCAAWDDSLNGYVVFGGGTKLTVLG
notes: human IgG1; also called IgG1, hit from panning; parental mAb
B7: TPP-11489 (antibody, human IgG1, lambda)
heavy: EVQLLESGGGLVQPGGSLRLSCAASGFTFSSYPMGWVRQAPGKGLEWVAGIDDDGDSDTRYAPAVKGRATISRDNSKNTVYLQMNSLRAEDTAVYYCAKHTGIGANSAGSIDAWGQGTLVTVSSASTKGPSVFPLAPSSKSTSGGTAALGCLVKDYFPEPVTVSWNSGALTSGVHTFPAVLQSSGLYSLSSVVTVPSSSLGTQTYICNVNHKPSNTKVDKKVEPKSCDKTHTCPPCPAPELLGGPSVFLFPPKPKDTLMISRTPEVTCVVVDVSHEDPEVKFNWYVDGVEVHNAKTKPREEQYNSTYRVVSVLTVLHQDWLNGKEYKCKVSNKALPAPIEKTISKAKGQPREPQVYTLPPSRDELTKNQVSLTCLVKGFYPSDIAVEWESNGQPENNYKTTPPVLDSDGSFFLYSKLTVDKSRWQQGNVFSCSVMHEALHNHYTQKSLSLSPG
light: SYELTQPPSVSVSPGQTARITCSGGGSYTGSYYYGWYQQKPGQAPVTVIYYNNKRPSDIPERFSGSLSGTTNTLTISGVQAEDEADYYCGSADNSGDAFGTGTKVTVLGQPKAAPSVTLFPPSSEELQANKATLVCLISDFYPGAVTVAWKADSSPVKAGVETTTPSKQSNNKYAASSYLSLTPEQWKSHRSYSCQVTHEGSTVEKTVAPTECS
notes: human IgG1; also called Chiome; Chiome Prior Art (hIgG1)
B8: TPP-17755 (antibody, human IgG1, lambda, V domains shown)
VH: EVQLLESGGGLVQTGGSLRLSCAASGFTFSDYAMSWVRQAPGKGLEWVSWIYYDSGSKYYADSVKGRFTISRDNSKNTLYLQMNSLRAEDTAVYYCAKLNGDFDYWGQGTLVTVSS
VL: QSVLTQPPSASGTPGQRVTISCSGSSSNIGNNDVSWYQQLPGTAPKLLIYADSHRPSGVPDRFSGSKSGTSASLAISGLRSEDEADYYCGAWDSSLSGYVFGGGTKLTVLG
notes: also called Samsung; Samsung Prior Art F11
B9: TPP-15374 (antibody, human IgG1, lambda, V domains shown)
VH: EVQLLESGGGLVQPGGSLRLSCAASGFTFSSYEMNWVRQAPGKGLEWVSGISWNSGSIGYADSVKGRFTISRDNSKNTLYLQMNSLRAEDTAVYYCARSGYSSSWFDPDFDYWGQGTLVTVSS
VL: QSVLTQPPSASGTPGQRVTISCTGSSSNIGAGYDVHWYQQLPGTAPKLLIYGNSNRPSGVPDRFSGSKSGTSASLAISGLRSEDEADYYCSSYAGSNPYVVFGGGTKLTVLG
notes: as for B6

Biological target: T1, Pig Semaphorin3A-Sema Domain, TPP-20176
Assay: SPR, captured antibody, Sema3A domain analyte
Protocol: (§1) To assess the binding activity of anti-Sema3A antibodies binding assays were conducted using surface plasmon resonance (SPR). Binding assays were performed on a Biacore T200 instrument (Cytiva) at 25° C. using assay buffer HBS P+, 300 mM NaCl, 0.75 mM CaCl₂, 2.5 mM MgCl₂, 1 mg/ml BSA, 0.05% NaN₃. Antibodies were captured via anti-human Fc IgGs (“Human antibody capture kit”, Order No. BR100839, Cytiva) covalently amine coupled to a Series S CM5 sensor chip (Cytiva). The amine coupling was carried out according to the manufacturer's instructions using 1-ethyl-3-(3-dimethylaminopropyl) carbodiimide hydrochloride (EDC), N-hydroxysuccinimide (NHS) and ethanolamine HCl, pH 8.5 (“Amine Coupling Kit” BR-1000-50, Cytiva.). Human, mouse, cynomolgus, rat, dog and pig monovalent Sema3A domain were used as analytes in a concentration series from 0.024-3.125 nM in multi cycle kinetics mode. The sensor surface was regenerated with glycine pH 2.0 after each antigen injection. Obtained sensorgrams were double referenced (subtraction of reference flow cell signal and buffer injection) and were fitted to a 1:1 Langmuir binding model using the Biacore T200 Evaluation software obtaining the experimental fitted RMax value. To calculate the binding activity first the theoretical RMax needs to be calculated according to equation 1: […]
(§2) Binding activity was determined by dividing the experimental determined RMax by the theoretical calculated RMax according to equation 2: […]

Binder	Binding Activity [%]
B1	107
B2	103
B3	105
B4	92
B5	107
B6	111
B7	77
B8	60
B9	103

Biological target: T2, Mouse Semaphorin3A-Sema Domain, …
Assay: SPR, captured antibody, Sema3A domain analyte
Protocol: as §1, §2

Binder	Binding Activity [%]
B1	108
B2	103
B3	107
B4	93
B5	108
B6	11
B7	118
B8	57
B9	106
